Measured values from the DeepSol protein solubility set.

assay: soluble on expression in E. coli; label from the status in PepcDB or PDB records

Sequence | soluble on expression in E. coli
ILTAGPTVDGRNIEQSVIDDIAETYDPKRYNARINEEHWSWSDKFGSVLSVEKRDDQLFAVLKPNSLLLSTIEKGQLLHTSCEIRANFQGTGKSYLTGLALTDEPASVGTTEMHLSAKEKNKDKSYFSSGATISKDDLSNNIDVDVQEDRKFLSRLKQLLSLGEPDKTQSLEESEDMNEELKELLQAQTAAVTALTAQVTSLAATLNKEESAPVEEENNETELAEKVDALSTKLDDVVTKLSNITDEPNRNLAGVDGDTEY | not soluble
MAMAVSGAVLSGLGSSFLTGGKRGATALASGVGTGAQRVGRKTLIVAAAAAQPKKSWIPAVKGGGNFLDPEWLDGSLPGDFGFDPLGLGKDPAFLKWYREAELIHGRWAMAAVLGIFVGQAWSGVAWFEAGAQPDAIAPFSFGSLLGTQLLLMGWVESKRWVDFFNPDSQSVEWATPWSKTAENFANYTGDQGYPGGRFFDPLGLAGKNRDGVYEPDFEKLERLKLAEIKHSRLAMVAMLIFYFEAGQGKTPLGALGL | soluble
MGSSHHHHHHSSGEDRYKEKLLQKAKAEGVESIEELKKRLADQIEEKKKELNKIDPLRELEQHLNAGSRIHTNKEHKTTKMSNKSNEKSGNVLPKDKPYKTLDDYLKLDKIKDLSKQEVEFLWRAKWSNRDDSLVAVVPYVKTFQGMYKYAVKNPLFVLPLPRENAADGNKADKDSVPVELQYVQWQFAGPNTVHCLITSLAEYKLHQDFAKPHTTIQFHLDLANDKDMVLMNGQVESDSNVSLQDAQLLLLNVQRFYGAMGSETSIAKERIQLLEDFNKGSQNFDINKLIQLAQSMEN | soluble
VSIKKSSGLNFDNTAIAINAGKGLEFDTNTSESPDINPIKTKIGSGIDYNENGAMITKLGAGLSFDNSGAITIGNKNDDKLTLWTTPDPSPNCRIHSDNDCKFTLVLTKCGSQVLATVAALAVSGDLSSMTGTVASVSIFLRFDQNGVLMENSSLKKHYWNFRNGNSTNANPYTNAVGFMPNLLAYPKTQSQTAKNNIVSQVYLHGDKTKPMILTITLNGTSESTETSEVSTYSMSFTWSWESGKYTTETFATNSYTFSYIAQE | soluble
MALPQDSVNMALFCDFENIALGVRDTKFEKFDIKPVLEKLLLKGSIVVKKAYCDWDRYKTFKAAMHEASFELIEIPHVRQSGKNSADIRLVVDALDLCYTKAHVDTFVIISGDSDFSPLVSKLRENAKRVIGVGVKNSTSDLLVANCDEFIFYDDLAR | not soluble
GPGSHQIRLLPLTDGFGDASMAGGTSAKIVSPMPGKVSKFLVNSGDFVEKGQALMIVEAMKMEHPVKALQDGQVSFLVKEGEVVGSDHVLATVVQKE | soluble
MHMEQDVNAALRPAYRHRYLQKGHHHSRNAVVDHQELTEKLNRLTSTSSLGSSLPSLSSLHSNSSIGTMPSAKIGDGSTSSLPMSSAKPMSTQTSEPQLPDVPEPNESLHNKTIDEFQKDQEKCDRLKARKAELEMRLRQKMQELKDVCVEEGDITGEMPVEINDVVLPGDDFPRLKRRVGTAYSIPDELIKADKADKMSQLETDVELHRRIVAAASRLATDKNTNKSVRKKRQKDLQAARLRLNRLEQGLQQMRHSASKPDISSLTSDSSNSWTASNSSGPMLTMAMTKSCPTTPRGSVPDLRNGLDDEKDEFDENVEDRVSRRAPSAISRHSLSQRYSGVSSSSTSSGSDSMGLGLPPRPTSRKSQQQQTTPFDDQLDNPMICEIPPPPSSAAAHPLYENVGYRSTSYRSSYRQAHYPTIQDEHTQRKRAQSAHSISTDNGATGRTSTYSVPLNDAAQKFREYDYDDEEDSTPTMDLPSHLINVRRLTSSISCQAGFATASLDRRYSKLNGGRLSSGGGGSDDVVRQNVTTRITTFPVATSAATVILSGKPYSASELPRFQPPPPVARVTHMPRGSLPPYSSATMGAQSPAPPPNGKLPTNPQMEALLSYYKQQQQQQHQQQSRSAPSQQPKTATIV | not soluble
MLGGFVMDLFPFLPGVRISLQSGWLPSGAADALLAGLLEGVPWEVHRIHIFGREVNSPRLSCWVGDPQASYRYSGRCFQPRPWWPALAELRMCLEGETGAVFNSVLLNRYRHGGDAIGWHSDDEAELGIDPLIASVSLGASRRFVFRHRRERHLRAECVLSHGDLLLMGGTTQRDYQHALPRTLRVVGERVNLTFRRILMLEHHHHHH | soluble
